Assay results taken from the RNAGym collection of RNA variant scans (doi:10.7554/elife.80360).

B1: CPEB3 Ribozyme (parent)
chain: GGGGGCCACAGCAGAAGCGUUCACGUCGCGGCCCCUGUCAGAUUCUGGUGAAUCUGCGAAUUCUGCUGU

Variants of: B1
Experiment: self-cleavage, relative activity (ratio to wild type); higher = more cleavage; co-transcriptional

| Variant | self-cleavage |
| --- | --- |
| GGGGGCCACAGCAGAAGCGUUUACGUCGCGGCCCCUGUCAGAUUCUGGUGAAUCUGCGAAUCCUGCUGU [C22U U62C] | 0.171 |
| GGGGGCCACAGCAGAAGCGUUUACGUCGCGGCCCCUGUCAGAUUCUGGUGAAUCUGCGAAUUCCGCUGU [C22U U64C] | 0.279 |
| GGGGGCCACAGCAGAAGCGUUUACGUCGCGGCCCCUGUCAGAUUCUGGUGAAUCUGCGAAUUCGGCUGU [C22U U64G] | 0.237 |
| GGGGGCCACAGCAGAAGCGUUUACGUCGCGGCCCCUGUCAGAUUCUGGUGAAUCUGCGAAUUCUGCCGU [C22U U67C] | 0.365 |
| GGGGGCCACAGCAGAAGCGUUUACGUCGCGGCCCCUGUCAGAUUCUGGUGAAUCUGCGAAUUCUGCGGU [C22U U67G] | 0.332 |
| GGGGGCCACAGCAGAAGCGUUCCCGUCGCGGCCCCUGUCCGAUUCUGGUGAAUCUGCGAAUUCUGCUGU [A23C A40C] | 0.544 |
| GGGGGCCACAGCAGAAGCGUUCCCGUCGCGGCCCCUGUCUGAUUCUGGUGAAUCUGCGAAUUCUGCUGU [A23C A40U] | 0.79 |
| GGGGGCCACAGCAGAAGCGUUCCCGUCGCGGCCCCUGUCAGCUUCUGGUGAAUCUGCGAAUUCUGCUGU [A23C A42C] | 0.92 |
| GGGGGCCACAGCAGAAGCGUUCCCGUCGCGGCCCCUGUCAGUUUCUGGUGAAUCUGCGAAUUCUGCUGU [A23C A42U] | 0.869 |
| GGGGGCCACAGCAGAAGCGUUCCCGUCGCGGCCCCUGUCAGAUUCUGGUGAAUCUGCGUAUUCUGCUGU [A23C A59U] | 0.67 |
| GGGGGCCACAGCAGAAGCGUUCCCGUCGCGGCCCCUGUCAGAUUCUGGUGAAUCUGCGAUUUCUGCUGU [A23C A60U] | 0.516 |
| GGGGGCCACAGCAGAAGCGUUCCCGUGGCGGCCCCUGUCAGAUUCUGGUGAAUCUGCGAAUUCUGCUGU [A23C C27G] | 0.228 |
| GGGGGCCACAGCAGAAGCGUUCCCGUCGGGGCCCCUGUCAGAUUCUGGUGAAUCUGCGAAUUCUGCUGU [A23C C29G] | 0.485 |
| GGGGGCCACAGCAGAAGCGUUCCCGUCGCGGUCCCUGUCAGAUUCUGGUGAAUCUGCGAAUUCUGCUGU [A23C C32U] | 0.85 |
| GGGGGCCACAGCAGAAGCGUUCCCGUCGCGGCACCUGUCAGAUUCUGGUGAAUCUGCGAAUUCUGCUGU [A23C C33A] | 0.746 |
| GGGGGCCACAGCAGAAGCGUUCCCGUCGCGGCCCAUGUCAGAUUCUGGUGAAUCUGCGAAUUCUGCUGU [A23C C35A] | 0.26 |
| GGGGGCCACAGCAGAAGCGUUCCCGUCGCGGCCCUUGUCAGAUUCUGGUGAAUCUGCGAAUUCUGCUGU [A23C C35U] | 0.844 |
| GGGGGCCACAGCAGAAGCGUUCCCGUCGCGGCCCCUGUUAGAUUCUGGUGAAUCUGCGAAUUCUGCUGU [A23C C39U] | 0.796 |
| GGGGGCCACAGCAGAAGCGUUCCCGUCGCGGCCCCUGUCAGAUUCUGGUGAAUAUGCGAAUUCUGCUGU [A23C C54A] | 0.849 |
| GGGGGCCACAGCAGAAGCGUUCCCGUCGCGGCCCCUGUCAGAUUCUGGUGAAUCUGCGAAUUUUGCUGU [A23C C63U] | 0.969 |

| Variant | self-cleavage |
| --- | --- |
| GGGGGCCACAGCAGAAGCGUUCCCGUCGCGGCCCCUGUCAGAUUCUGGUGAAUCUGCGAAUUCUGGUGU [A23C C66G] | 0.81 |
| GGGGGCCACAGCAGAAGCGUUCCCCUCGCGGCCCCUGUCAGAUUCUGGUGAAUCUGCGAAUUCUGCUGU [A23C G25C] | 0.151 |
| GGGGGCCACAGCAGAAGCGUUCCCUUCGCGGCCCCUGUCAGAUUCUGGUGAAUCUGCGAAUUCUGCUGU [A23C G25U] | 0.176 |
| GGGGGCCACAGCAGAAGCGUUCCCGUCUCGGCCCCUGUCAGAUUCUGGUGAAUCUGCGAAUUCUGCUGU [A23C G28U] | 0.2 |
| GGGGGCCACAGCAGAAGCGUUCCCGUCGCUGCCCCUGUCAGAUUCUGGUGAAUCUGCGAAUUCUGCUGU [A23C G30U] | 0.317 |
| GGGGGCCACAGCAGAAGCGUUCCCGUCGCGACCCCUGUCAGAUUCUGGUGAAUCUGCGAAUUCUGCUGU [A23C G31A] | 0.86 |
| GGGGGCCACAGCAGAAGCGUUCCCGUCGCGGCCCCUUUCAGAUUCUGGUGAAUCUGCGAAUUCUGCUGU [A23C G37U] | 0.299 |
| GGGGGCCACAGCAGAAGCGUUCCCGUCGCGGCCCCUGUCAAAUUCUGGUGAAUCUGCGAAUUCUGCUGU [A23C G41A] | 0.809 |
| GGGGGCCACAGCAGAAGCGUUCCCGUCGCGGCCCCUGUCACAUUCUGGUGAAUCUGCGAAUUCUGCUGU [A23C G41C] | 0.725 |
| GGGGGCCACAGCAGAAGCGUUCCCGUCGCGGCCCCUGUCAGAUUCUAGUGAAUCUGCGAAUUCUGCUGU [A23C G47A] | 0.924 |
| GGGGGCCACAGCAGAAGCGUUCCCGUCGCGGCCCCUGUCAGAUUCUCGUGAAUCUGCGAAUUCUGCUGU [A23C G47C] | 0.961 |
| GGGGGCCACAGCAGAAGCGUUCCCGUCGCGGCCCCUGUCAGAUUCUUGUGAAUCUGCGAAUUCUGCUGU [A23C G47U] | 0.993 |
| GGGGGCCACAGCAGAAGCGUUCCCGUCGCGGCCCCUGUCAGAUUCUGAUGAAUCUGCGAAUUCUGCUGU [A23C G48A] | 0.978 |
| GGGGGCCACAGCAGAAGCGUUCCCGUCGCGGCCCCUGUCAGAUUCUGUUGAAUCUGCGAAUUCUGCUGU [A23C G48U] | 0.942 |
| GGGGGCCACAGCAGAAGCGUUCCCGUCGCGGCCCCUGUCAGAUUCUGGUGAAUCUUCGAAUUCUGCUGU [A23C G56U] | 0.88 |
| GGGGGCCACAGCAGAAGCGUUCCCGUCGCGGCCCCUGUCAGAUUCUGGUGAAUCUGCAAAUUCUGCUGU [A23C G58A] | 0.89 |
| GGGGGCCACAGCAGAAGCGUUCCCGUCGCGGCCCCUGUCAGAUUCUGGUGAAUCUGCUAAUUCUGCUGU [A23C G58U] | 0.929 |
| GGGGGCCACAGCAGAAGCGUUCCCGUCGCGGCCCCUGUCAGAUUCUGGUGAAUCUGCGAAUUCUGCUAU [A23C G68A] | 0.969 |
| GGGGGCCACAGCAGAAGCGUUCCCGACGCGGCCCCUGUCAGAUUCUGGUGAAUCUGCGAAUUCUGCUGU [A23C U26A] | 0.628 |
